A value given as a limit tells only on which side of the number the result lay.

The target in the assay is CD20 (B-cell surface antigen CD20 on human Burkitt's B-cell non-Hodgkin's lymphoma Raji cells) (human) (UniProt P11836). Description: cell-based or functional assay.
Sequence of UniProt P11836 (P11836 whole entry): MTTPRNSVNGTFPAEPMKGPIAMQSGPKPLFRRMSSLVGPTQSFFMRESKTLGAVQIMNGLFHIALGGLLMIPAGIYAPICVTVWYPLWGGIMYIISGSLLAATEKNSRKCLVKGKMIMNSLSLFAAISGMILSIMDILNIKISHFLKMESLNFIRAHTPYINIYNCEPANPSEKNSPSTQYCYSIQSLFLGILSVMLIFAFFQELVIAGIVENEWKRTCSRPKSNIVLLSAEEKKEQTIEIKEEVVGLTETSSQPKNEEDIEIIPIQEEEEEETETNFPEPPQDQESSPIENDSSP

Consider “Fab′-MORF1 conjugate (Fab′ fragment of the mouse anti-human CD20 IgG2a mAb 1F5 tethered to the 3′ end of morpholino MORF1 via a thioether bond)”, for which the apoptosis induction, fold over untreated, Raji B-cells; 5 µM Fab′-MORF1 + P-MORF2/v3 (fold compared to untreated) turned out to be 7; the apoptosis of Raji B-cells, P-MORF2/v10 against P-MORF2/v3 (0.5 µM Fab′, MORF1:MORF2 = 1:1 or 1:10) (fold against P-MORF2/v3) was 2; the apoptotic cells, annexin V/PI staining, Raji B-cells; 1 µM Fab′-MORF1 and equimolar P-MORF2/v3 is 40%; the apoptotic cells, fold over untreated, annexin V/PI staining, Raji B-cells; 1 µM Fab′-MORF1 and equimolar P-MORF2/v3 (fold compared to untreated) was greater than 4. Besides, the apoptotic index (%), Annexin V/PI binding assay, Raji B-cells, 48 h; consecutive Fab′-MORF1 then Copolymer-MORF2, 0.5 µM, valence = 10, MORF1:MORF2 1:1 came out at 50% and the apoptotic index (%), Annexin V/PI binding assay, Raji B-cells, 48 h; consecutive Fab′-MORF1 then Copolymer-MORF2, 1 µM, valence = 3, MORF1:MORF2 1:1 worked out at 37%.

The values above are taken from patent US20190167709A1.
